# From paper PMC10783520, “Mutual promotion of co-condensation of KRAS G-quadruplex and a well-folded protein HMGB1”
# T1: HMGB1 A box (termed HMGB1) (UniProt P09429 9-78)
# T1 sequence: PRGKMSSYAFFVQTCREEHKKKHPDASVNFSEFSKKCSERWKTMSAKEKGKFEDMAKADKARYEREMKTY
# Key:
# Conditions in all cases: protein: recombinant; intramolecular parallel G4, K+
# [1] = target: T1, HMGB1 A box (termed HMGB1); assay: ITC; K+; K+-containing buffer; 20 or 200 mM K+ in Fig S9 titrations (10 uM HMGB1); full buffer, pH and temperature of binding assays not in material (phase-separation assays: 10 mM HEPES pH 7.4, 20 mM K+, 10% PEG8K)
# [2] = target: T1, HMGB1 A box (termed HMGB1); assay: fluorescence titration; 20 mM K+; K+-containing buffer; 20 or 200 mM K+ in Fig S9 titrations (10 uM HMGB1); full buffer, pH and temperature of binding assays not in material (phase-separation assays: 10 mM HEPES pH 7.4, 20 mM K+, 10% PEG8K)
# [3] = target: T1, HMGB1 A box (termed HMGB1); assay: fluorescence titration; 200 mM K+; K+-containing buffer; 20 or 200 mM K+ in Fig S9 titrations (10 uM HMGB1); full buffer, pH and temperature of binding assays not in material (phase-separation assays: 10 mM HEPES pH 7.4, 20 mM K+, 10% PEG8K)
# [4] = target: T1, HMGB1 A box (termed HMGB1); assay: fluorescence titration (intrinsic HMGB1 fluorescence, 335 nm); K+; K+-containing buffer; 20 or 200 mM K+ in Fig S9 titrations (10 uM HMGB1); full buffer, pH and temperature of binding assays not in material (phase-separation assays: 10 mM HEPES pH 7.4, 20 mM K+, 10% PEG8K)
binder,measurement,setting,value
AGGGCGGTGTGGGAAGAGGGAA (structured_DNA) [22R (GQKRAS)],Kd,[1],7.04 µM
same,Kd,[2],3.24 µM
same,Kd,[3],4.24 µM
same,Kd,[4],4.08 µM
